Measurements as given in patent publication US20090081707A1 (published 2009).

How the values were obtained:
[1] = molecular target: trkC variant s5a immunoadhesin (trkC Val297 to Thr420 replaced with trkA Ser277 to Val402) (human); experiment: competitive displacement of labelled NGF on immunoadhesin
[2] = molecular target: trkC variant s5a immunoadhesin (trkC Val297 to Thr420 replaced with trkA Ser277 to Val402) (human); experiment: saturation binding with 125I-NGF on immunoadhesin
[3] = molecular target: T1, trkA-IgG immunoadhesin (chimera of human trkA extracellular domain with human IgG-1 Fc) (human, UniProt P04629 33-408); experiment: competitive displacement of iodinated neurotrophin from trk-IgG
T1 construct: also called trkA-IgG chimera; native trkA; not shown: human IgG-1 heavy chain constant region from aspartic acid 216 of the hinge to residue 441 (Kabat numbering, 114 = first)
T1 sequence (P04629 other isoform, or with tags, fused parts or gaps mutant limits assumed): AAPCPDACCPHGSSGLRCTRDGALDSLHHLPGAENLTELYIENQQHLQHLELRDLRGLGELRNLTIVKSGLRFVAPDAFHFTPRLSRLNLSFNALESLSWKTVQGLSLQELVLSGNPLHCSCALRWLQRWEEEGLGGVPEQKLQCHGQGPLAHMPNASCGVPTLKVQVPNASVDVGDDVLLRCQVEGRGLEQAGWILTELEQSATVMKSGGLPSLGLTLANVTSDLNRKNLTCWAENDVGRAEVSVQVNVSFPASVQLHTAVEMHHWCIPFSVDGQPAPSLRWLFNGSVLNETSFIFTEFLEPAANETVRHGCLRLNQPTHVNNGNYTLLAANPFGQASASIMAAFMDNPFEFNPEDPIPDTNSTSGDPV

[4] = molecular target: T2, trkB-IgG immunoadhesin (chimera of human trkB extracellular domain with human IgG-1 Fc) (human, UniProt Q16620 32-422); experiment: competitive displacement of labelled BDNF from trkB-IgG by unlabelled NT4/5
T2 construct: also called trkB full length receptor (as immunoadhesin); not shown: human IgG-1 heavy chain constant region from aspartic acid 216 of the hinge to residue 441 (Kabat numbering, 114 = first)
T2 sequence (Q16620 32-422 limits assumed, change not shown): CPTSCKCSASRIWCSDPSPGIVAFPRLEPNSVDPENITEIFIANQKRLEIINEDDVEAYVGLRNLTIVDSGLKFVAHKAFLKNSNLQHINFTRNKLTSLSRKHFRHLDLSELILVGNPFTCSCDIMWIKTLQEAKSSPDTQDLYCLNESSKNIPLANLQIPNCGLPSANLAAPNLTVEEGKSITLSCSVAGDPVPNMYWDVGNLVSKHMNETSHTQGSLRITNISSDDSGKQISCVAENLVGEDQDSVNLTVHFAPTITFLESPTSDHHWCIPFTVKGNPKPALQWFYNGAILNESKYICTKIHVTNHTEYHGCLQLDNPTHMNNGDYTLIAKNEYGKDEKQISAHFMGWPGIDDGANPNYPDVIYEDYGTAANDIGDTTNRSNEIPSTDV

[5] = molecular target: T2, trkB-IgG immunoadhesin (chimera of …); experiment: competitive displacement of labelled BDNF from trkB-IgG by unlabelled NT3
[6] = molecular target: T3, trkC-IgG immunoadhesin (chimera of human trkC extracellular domain with human IgG-1 Fc) (human, UniProt Q16288 32-413); experiment: competitive displacement of labelled BDNF on immunoadhesin
T3 construct: also called trkC wild-type; trkC full length receptor (as immunoadhesin); not shown: human IgG-1 heavy chain constant region from aspartic acid 216 of the hinge to residue 441 (Kabat numbering, 114 = first)

[7] = molecular target: T2, trkB-IgG immunoadhesin (chimera of …); experiment: competitive displacement of labelled BDNF from trkB-IgG by unlabelled BDNF

Sequence of trkC variant s5a immunoadhesin (trkC Val297 to Thr420 replaced with trkA Ser277 to Val402) (human) (chain, as listed by the source mutant): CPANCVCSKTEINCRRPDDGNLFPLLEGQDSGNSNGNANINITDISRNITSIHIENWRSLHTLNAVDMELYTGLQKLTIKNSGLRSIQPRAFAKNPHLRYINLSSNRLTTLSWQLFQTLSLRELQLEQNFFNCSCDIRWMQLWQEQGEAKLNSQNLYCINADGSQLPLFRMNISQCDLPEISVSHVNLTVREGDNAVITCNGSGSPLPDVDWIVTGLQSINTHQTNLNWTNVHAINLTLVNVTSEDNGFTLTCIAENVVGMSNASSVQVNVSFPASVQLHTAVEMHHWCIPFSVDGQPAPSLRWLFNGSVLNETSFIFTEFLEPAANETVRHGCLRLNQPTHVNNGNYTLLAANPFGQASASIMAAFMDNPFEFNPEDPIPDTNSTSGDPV

nerve growth factor (NGF) (from UniProt P01138 122-241) (ligand)
IC50 [1]: 0.0393 nM | Kd [2]: 0.0386 nM

B1: neurotrophin-4/5 (NT-4/5) (ligand)
chain: GVSETAPASRRGELAVCDAVSGWVTDRRTAVDLRGREVEVLGEVPAAGGSPLRQYFFETRCKADNAEEGGPGAGGGGCRGVDRRHWVSECKAKQSYVRALTADAQGRVGWRWIRIDTACVCTLLSRTGRA
notes: also called NT5
binding result [3]: binds | IC50 [4]: 0.2 nM

B2: neurotrophin-3 (NT-3) (ligand)
chain: YAEHKSHRGEYSVCDSESLWVTDKSSAIDIRGHQVTVLGEIKTGNSPVKQYFYETRCKEARPVKNGCRGIDDKHWNSQCKTSQTYVRALTSENNKLVGWRWIRIDTSCVCALSRKIGRT
IC50 [5]: 18 nM

B3: brain-derived neurotrophic factor (BDNF) (ligand)
chain: HSDPARRGELSVCDSISEWVTAADKKTAVDMSGGTVTVLEKVPVSKGQLKQYFYETKCNPMGYTKEGCRGIDKRHWNSQCRTTQSYVRALTMDSKKRIGWRFIRIDTSCVCTLTIKRGR
notes: also called NT-2
binding result [6]: no binding | IC50 [7]: 0.081 nM
